Experimental data published in patent US20240117018A1.

Legend:
Experiment in all cases: cell-based or functional assay
[1] = biological target: HIV-1 Env of pseudovirus 3817.v2.c59 (HIV-1)
[2] = biological target: HIV-1 Env of pseudovirus 231965.c01 (HIV-1)
[3] = biological target: HIV-1 Env of pseudovirus C1080.c03 (HIV-1)
[4] = biological target: HIV-1 Env of pseudovirus R1166.c01 (HIV-1)
[5] = biological target: HIV-1 Env of pseudovirus X1632_S2_B10 (HIV-1)
[6] = biological target: HIV-1 Env of pseudovirus X2131_C1_B5 (HIV-1)
[7] = biological target: HIV-1 Env of pseudovirus X1193_c1 (HIV-1)
[8] = biological target: HIV-1 Env of pseudovirus 235-47 (HIV-1)
[9] = biological target: HIV-1 Env of pseudovirus 6540.v4.c1 (HIV-1)
[10] = biological target: HIV-1 Env of pseudovirus BJOX028000.10.3 (HIV-1)
[11] = biological target: HIV-1 Env of pseudovirus P0402_c2_11 (HIV-1)
[12] = biological target: HIV-1 Env of pseudovirus 211-9 (HIV-1)
[13] = biological target: HIV-1 Env of pseudovirus BJOX009000.02.4 (HIV-1)
[14] = biological target: HIV-1 Env of pseudovirus BJOX025000.01.1 (HIV-1)
[15] = biological target: HIV-1 Env of pseudovirus 231966.c02 (HIV-1)
[16] = biological target: HIV-1 Env of pseudovirus X1254_c3 (HIV-1)
[17] = biological target: HIV-1 Env of pseudovirus 6041.v3.c23 (HIV-1)
[18] = biological target: HIV-1 Env of pseudovirus X2088_c9 (HIV-1)
[19] = biological target: HIV-1 Env of pseudovirus BJOX010000.06.2 (HIV-1)
[20] = biological target: HIV-1 Env of pseudovirus A07412M1.vrc12 (HIV-1)
[21] = biological target: HIV-1 Env of pseudovirus 0815.v3.c3 (HIV-1)
[22] = biological target: HIV-1 Env of pseudovirus R2184.c04 (HIV-1)
[23] = biological target: HIV-1 Env of pseudovirus T278-50 (HIV-1)
[24] = biological target: HIV-1 Env of pseudovirus 6952.v1.c20 (HIV-1)
[25] = biological target: HIV-1 Env of pseudovirus C3347.c11 (HIV-1)
[26] = biological target: HIV-1 Env of pseudovirus BJOX015000.11.5 (HIV-1)
[27] = biological target: HIV-1 Env of pseudovirus 89-F1_2_25 (HIV-1)
[28] = biological target: HIV-1 Env of pseudovirus T255-34 (HIV-1)
[29] = biological target: HIV-1 Env of pseudovirus 6811.v7.c18 (HIV-1)
[30] = biological target: HIV-1 Env of pseudovirus 6545.v4.c1 (HIV-1)
[31] = biological target: HIV-1 Env of pseudovirus 3016.v5.c45 (HIV-1)

10-1074 (antibody)
IC50 neutralization (TZM.bl) [1]: 3.15 µg/mL
IC80 neutralization (TZM.bl) [1]: 14.9 µg/mL
IC50 neutralization (TZM.bl) [2]: > 50 µg/mL
IC80 neutralization (TZM.bl) [2]: > 50 µg/mL
IC50 neutralization (TZM.bl) [3]: > 50 µg/mL
IC80 neutralization (TZM.bl) [3]: > 50 µg/mL
IC50 neutralization (TZM.bl) [4]: > 50 µg/mL
IC80 neutralization (TZM.bl) [4]: > 50 µg/mL
IC50 neutralization (TZM.bl) [5]: > 50 µg/mL
IC80 neutralization (TZM.bl) [5]: > 50 µg/mL
IC50 neutralization (TZM.bl) [6]: 0.016 µg/mL
IC80 neutralization (TZM.bl) [6]: 0.064 µg/mL
IC50 neutralization (TZM.bl) [7]: 0.083 µg/mL
IC80 neutralization (TZM.bl) [7]: 0.475 µg/mL
IC50 neutralization (TZM.bl) [8]: 0.05 µg/mL
IC80 neutralization (TZM.bl) [8]: 0.163 µg/mL
IC50 neutralization (TZM.bl) [9]: > 50 µg/mL
IC80 neutralization (TZM.bl) [9]: > 50 µg/mL
IC50 neutralization (TZM.bl) [10]: > 50 µg/mL
IC80 neutralization (TZM.bl) [10]: > 50 µg/mL
IC50 neutralization (TZM.bl) [11]: 0.012 µg/mL
IC80 neutralization (TZM.bl) [11]: 0.039 µg/mL
IC50 neutralization (TZM.bl) [12]: 0.112 µg/mL
IC80 neutralization (TZM.bl) [12]: 0.425 µg/mL
IC50 neutralization (TZM.bl) [13]: > 50 µg/mL
IC80 neutralization (TZM.bl) [13]: > 50 µg/mL
IC50 neutralization (TZM.bl) [14]: > 50 µg/mL
IC80 neutralization (TZM.bl) [14]: > 50 µg/mL
IC50 neutralization (TZM.bl) [15]: > 50 µg/mL
IC80 neutralization (TZM.bl) [15]: > 50 µg/mL
IC50 neutralization (TZM.bl) [16]: 0.089 µg/mL
IC80 neutralization (TZM.bl) [16]: 0.297 µg/mL
IC50 neutralization (TZM.bl) [17]: > 50 µg/mL
IC80 neutralization (TZM.bl) [17]: > 50 µg/mL
IC50 neutralization (TZM.bl) [18]: 0.003 µg/mL
IC80 neutralization (TZM.bl) [18]: 0.014 µg/mL
IC50 neutralization (TZM.bl) [19]: > 50 µg/mL
IC80 neutralization (TZM.bl) [19]: > 50 µg/mL
IC50 neutralization (TZM.bl) [20]: < 0.001 µg/mL
IC80 neutralization (TZM.bl) [20]: 0.048 µg/mL
IC50 neutralization (TZM.bl) [21]: 0.03 µg/mL
IC80 neutralization (TZM.bl) [21]: 0.138 µg/mL
IC50 neutralization (TZM.bl) [22]: > 50 µg/mL
IC80 neutralization (TZM.bl) [22]: > 50 µg/mL
IC50 neutralization (TZM.bl) [23]: 2.15 µg/mL
IC80 neutralization (TZM.bl) [23]: 18.3 µg/mL
IC50 neutralization (TZM.bl) [24]: 0.037 µg/mL
IC80 neutralization (TZM.bl) [24]: 0.138 µg/mL
IC50 neutralization (TZM.bl) [25]: > 50 µg/mL
IC80 neutralization (TZM.bl) [25]: > 50 µg/mL
IC50 neutralization (TZM.bl) [26]: > 50 µg/mL
IC80 neutralization (TZM.bl) [26]: > 50 µg/mL
IC50 neutralization (TZM.bl) [27]: > 50 µg/mL
IC80 neutralization (TZM.bl) [27]: > 50 µg/mL
IC50 neutralization (TZM.bl) [28]: > 50 µg/mL
IC80 neutralization (TZM.bl) [28]: > 50 µg/mL
IC50 neutralization (TZM.bl) [29]: 0.002 µg/mL
IC80 neutralization (TZM.bl) [29]: 0.01 µg/mL
IC50 neutralization (TZM.bl) [30]: > 50 µg/mL
IC80 neutralization (TZM.bl) [30]: > 50 µg/mL
IC50 neutralization (TZM.bl) [31]: > 50 µg/mL
IC80 neutralization (TZM.bl) [31]: > 50 µg/mL
